Experiment: yeast display, Sf9 membrane polyspecificity reagent, FACS + sequencing; frameworks hold sequencing errors
Summary of the method: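 Sorting gates, low and high (top ~1%), were placed on anti-HA fluorescence to track expression and on streptavidin fluorescence to track reagent binding. A clone's polyreactivity label is taken from the gate it came out of. The reagent was 10% biotinylated, detergent-solubilized Sf9 membrane, applied for 1 hour at 4 °C to galactose-induced yeast display cells.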

QVQLVESGGGLVQAGGSLRLSCAASGSIFVSYTMGWYRQPPGKERELVAAISGGGASTYYADSVKGRFTISRDNAKNTVYLQMNSLKPEDTAVYYCNASRKRSYDYWGQGTQVTVSS
polyreactivity (PSR sort gate): low polyreactivity

QVQLVESGGGLVQAGGSLRLSCAASGSTFPDNAMGWYRQAPGKERELVAAISFSSGSTYYADSVKGRFTISRDNAKNTVYLQMNSLKPEDTAVYYCAADSYPAYLGFVGFDYWGQGTQVTVSS
polyreactivity (PSR sort gate): low polyreactivity

QVQLVESGGGLVQAGGSLRLSCAASGSTFYVYAMGWYRQAPGKEREFVAAISFSSGSTYYADSVKGRFTISRDNAKNTVYLQMNMMNQEDTAVYDCAARYRYPRYIGYGYGGAFVYWGQGTQVTVSS
polyreactivity (PSR sort gate): high polyreactivity

QVQLQESCGRLVQAGGILRLSCAACGNIFPSAVMGWYRQALGTEREFVATLNSGSNPYYADSVKGRFTISRDNAKNTVYLQLNSLKLEDTAVYYCAAYYKLPAWHTYWGQGTQVTVSS
polyreactivity (PSR sort gate): low polyreactivity

QVQLVESGGGLVQAGGSLRLSCAASGYTFVIYAMGSYRQAPGKERELVAAITTIGGRTYYADSVKGRFTISRDNAKNTVYLQMNSLKPEDTAVYYCAADIRSNRLYDGGYWGLGTQVTVSS
polyreactivity (PSR sort gate): low polyreactivity

QVQLVESGGGLVQAGGSLRISCAASVSIFARYAMGWYRQAPGQERELVAAISSRGGSTYYADSVKGRFTISRDNAKNTVYLQMNSLKPEDTAVYYCNKGYLVRPGVYWGQGTQVTVSS
polyreactivity (PSR sort gate): high polyreactivity

QVQLVESGGGLVQAGGSLRLSCAASGSIFVTNAMGWYRQAPGKERELVAAISWRGGSTYYADSVKGRFTISRDNAKNTVYLQMNSLKPEDTGVYDCNTYHPYWGSGFDYWGLGTQVTVSS
polyreactivity (PSR sort gate): low polyreactivity

QVQLVESGGGLVQAGGSLRLSCAASGIIFSWYDMGWYRKAPGKERELVAAISSGDRTNYADSVKGRFTISRDNAKNTVYLQMNSLKPEDTAVYYCAADLFPIAGEYDYWGQGTQVTVSS
polyreactivity (PSR sort gate): high polyreactivity

QVQLVESGGGLVQAGGSLRLSCAASGRIFYSYAMGWYRQAPGKERELVAAITESGGSTNYADSVKGRFTISRDNAKNTVYLQMNSLKPEDTEVYYCNARYKLTFNLYNYWGQGTQETVSS
polyreactivity (PSR sort gate): low polyreactivity

QVQLVESGGGLVQAGGSLRLSCAASGRTFSHYAMGWYRQAPGKERELVAAITWSGGRTYYADSVKGRFTISRDNAKNTVYLQMNSLKPEDTAVYYCAAGKYWPGNYWGQGTQVTVSS
polyreactivity (PSR sort gate): high polyreactivity

QVQLQESGGGLVQAGGGLRLSCAASGSILNQAPMGWYRQAPGKERELVATINEGSITNYADSVKGRFTISRDNAKNTVYLQMNSLKPEDTAVYYCAVNKYIGLDYHYWGQGTQVTVSS
polyreactivity (PSR sort gate): low polyreactivity

QVQLVDSGGGLVQAGGSLRLSCAASGSIFYTNAMGWYRQAPGKERELVAAISYGGTTTYADSVKGRFTISRDNAKNTVYLQMNSLKPEDTAVYYCNADWLYYGYWGYGHIWYDYWGQGTQVTVSS
polyreactivity (PSR sort gate): low polyreactivity

QVQLVESGGGLVQAGGSLRLSCAASGSTFPGNTMGSYRQAPGKERELVAAITWNGGSTYYADSVKGRFTISRDNAKNNVYLQMNRLKPEDTAVYYCATRARVTYYYWGLGTQVTVSS
polyreactivity (PSR sort gate): high polyreactivity

QVQLVESGGGLVQAGGSLRLSCAASGLTFSKNVMGWYRQAPGKERELVAAISGITSSTYYADSVKGRFTISRDNAKNTVYLQMNSLKPEDTAVYYCAADLSFSRPGRFGYWGQGTQVTVSS
polyreactivity (PSR sort gate): high polyreactivity

QVQLVESGGGLVQAGGSLRLSCAASGNTFYGYTMGWYIQAPGKDRELVAAISGRGGSTTYADSVKGRFTISRDNAKNTVYLQMNSLNPEDTAVYYCAATYVYIRTRFYYWGQGTQVTVSS
polyreactivity (PSR sort gate): high polyreactivity

QVQLVESGGGLDQAGGSLRLSCAASGRIFTANVMGWYRQAPGKERELVAAIDYSGGSTYYADSVKGRFTISRDNAKNTVYLQMNSLKPEDTAVYSCNRDDYADYYHLEYDYWGQGTQVTVSS
polyreactivity (PSR sort gate): low polyreactivity

QVQLVESGGGLVQAGGSLRLSCAASGSTFKLYVMGLYRPAPGKERELVAAIDWSGGSTYYADSVKGRFTISRDNAKNTVYLQMNSLTPEDTAVYYCAADSPNSWRMDYWGQGTQVTVSS
polyreactivity (PSR sort gate): low polyreactivity

QVQLVESGGGLVQAGGSLRISCAASGYTVKSYAMGWYRQAPGKERELVAAISNGGNTYYADSVKGRFTISRDNAKNTVYLQMNSLKPEDTAVYYCAARYGYFYSRYDHWGQGTQVTVSS
polyreactivity (PSR sort gate): low polyreactivity

QVQLVESGGGLVQAGGSLRLSCAASGRILSANAMGWYRQAPGTERELVAAITYSGDNTYYADSVKGRFTISRDNAKNTVYLQMNSLKPEDTAVYYCAREFQVDGGEEDYWGQGSQVTVSS
polyreactivity (PSR sort gate): low polyreactivity

QVQLVESGGGLVQAGGSLRLSCAASGFILYFNAMGWYRQAPGKERELVAVISGTGVRTNYADSVKGRFTISRDNAKNTVYLQMYSLKPEDTAVYYCAAGYYSYRPRDYWGQGTQVTVSS
polyreactivity (PSR sort gate): low polyreactivity

QVQLVESGGGLVQAGGSLRLSCAASGRTFIYYTMGWYREAPGKERELVASISFSGGRTYYADSVKGRFTISRDNAKNTVYLQMNSLKAEDTAVYYCNRVLYYQVDYWGQGTEVTVSS
polyreactivity (PSR sort gate): high polyreactivity

QVQLVESGGGLVQAGGSLRLSCAASGRTFDSYAMGWYRQAPGTETELVAGITRSGDSSYADSVKGRFTISRDNAKNTVYLQMTSLKPEDTAVYYCNKEGTVGGTRGYWGQGTQVTVSS
polyreactivity (PSR sort gate): low polyreactivity

QVQLVESGGGLVQAGGSLRLSCADSGRTFSYNLMGWYSQAPGKESEVVAAISRRGGSTYYADSVKGRFTISRDNAKNTVYLQMNSLKPEDTAVYYCNAVSPSPGGGYWGQGSQVTVSS
polyreactivity (PSR sort gate): high polyreactivity

QVHLVESGGGLVQAGGSLRLSCAASGSTFRLYALGWYRQAPGKERELVAVISRSGGRTYADSVKGRFTISRDNAKNTVYLQMNSLKPVDTAVYYCAKARHKSPTYTHDSWGQGTQVTVSS
polyreactivity (PSR sort gate): high polyreactivity

QVQLVESGGGLVQAGGSLRLSCAAYGITFYWYAMGRYRQAPGKEWELVAGISQSGSRTYYADSVKGRFTISRDNAKNTVYLQMNSLKPEDTAVYYCAARVRWSPTRTFEYWGQGTQVTVSS
polyreactivity (PSR sort gate): high polyreactivity

QVQLVESGGGLVQAGGSLRISCAASGGNFDSNAMGWTRPAPGKVRELVAAISDSGGSTYYADSVKGRFTISRDNAYNTVYLQMNSLKPEDTAVYYCAADSDYHFVNYRFGMDYWGQGTQVTVSS
polyreactivity (PSR sort gate): low polyreactivity

QVQLVESGGGLFQAGGSLRLSCAASGSTLVKNAMGWYRQAPGKERELVAAIDYNDDITYYADSVKGRFTISRDTAKNTVYLQMNSLKPEDTAVYYCAAEPYAGPELDYWGQGTQVTVSS
polyreactivity (PSR sort gate): high polyreactivity

QVQLVESGGGLVQAGGSLRLSCAASGRIFKAYAMGWYRQAPGKERELVAAITSTGSTYYADSVKGRFTISRDNAKNTVYLQMNSLKPEDTAVYSCARRPSYYQGDYWGQGTQVTVSS
polyreactivity (PSR sort gate): high polyreactivity

QVQLVESGGGLVQAGGSLRLSCAASGSTFSYNAMGWYRQAPGKERELVAAISGSGGTTYYADSVKGRFTISRDNAKNTVYLQMNSLKPEDTAVYYCAARPFRSWRYDYWGQGTQVTVSS
polyreactivity (PSR sort gate): low polyreactivity

QVQLVESGGGLVQAGGSHRLSCAASGRTFAPNAMGWYRQAPGKERELVAAISSVGITYYADSVNGRFTISRDNAKNTVYLQMNSLNPEDTAVYYCAKVRKTRSITDGYGYWGQGTQVTVSS
polyreactivity (PSR sort gate): low polyreactivity

QVQLVESGGGLVQAGGSLRLSCAASGSTFYANAMGWYRQAPGKERELVAEISFSGASTFYADSVKGRFTISRDNAKNTVYLQMNSLKPEDTAVYYCATANPSVVGFDYWGQGTQVTVSS
polyreactivity (PSR sort gate): low polyreactivity

QVQLVESGGGLVQAGGSLRLSCAASGRIFSYNARGWYRQAPGKEWELVAAISSGGSTYYADSVKGRFTISRDNAKKTVYLQMNSLKPEDTAVYYCAADRRYYSDLYYWGQGTQVTVSS
polyreactivity (PSR sort gate): low polyreactivity

QVQLVESGGGLVQAGGSLRLSCADSGTTVIFNAMGWYRQAPGKERELVGAISWRLGRTYYAYSVKGRFTISRDNAKNTVYLQMNSLTPEDTAVYYCARDYSRHKGDYWGQGTQVTVSS
polyreactivity (PSR sort gate): low polyreactivity

QVQLVESGGGLVQAGGRLSLSSAASGITFRNYAMGWYRQAPGKERQLVAAISRRGGSTYYADSVKGRFTISRDNAKNTVYLQMNSLKPEDTAVYYCAKSPDTAKEYDYWGQGTQVTVSS
polyreactivity (PSR sort gate): high polyreactivity

QVQLVESGGGLVQAGGSLRLSCAASVSTFDDNAMGWYIQAPGKERELVASITYRGGSTYYADSVKGRFTISRDNAKNTVYLQMNSLKPEDTAVYYCNADYTGAEYDYWGQGTQVTVSS
polyreactivity (PSR sort gate): low polyreactivity

QVQLVESGGGLVQAGASLRLSCAASGFTFGWYAMGWSRQARGKERELVAAISYSGGSTYYADSVKGRFTISRDNAKNTVYLQMISLKPEDTAVYYCAALYTGDSGYWGQGTQVTVSS
polyreactivity (PSR sort gate): high polyreactivity

QVQLVESGGGLVQAGGSLRLSCAASGSILGRYAMGWYRQAPGKERELVAVITSGGSTNYADSVKGRFTISRDNAKNTVYLQMNSLKPEDTAVYYCAVRPYELHRLADQPGGDDYWGQGTQVTVSS
polyreactivity (PSR sort gate): low polyreactivity

QVQLVESGGGLVQAGGSLRLSCAASGSIFPYYAMGWSRQAPGKERELVASINQSDGTTYYADSVKGRFTISRDNAKNTVYLQMNSLKPEDTAVYYCAAAYFYWRVDKYYYWGQGTQVTVSS
polyreactivity (PSR sort gate): low polyreactivity

QVQLVESGGGLVQAGGSLRLSCAASGRIFGYYAMGWYRQAPGKERELVAAISWTGASTYYADSVKGRFTISRDNAKNTVYLQMNSLKPEDTAVYYCAVDRGLDYYWGQGTQVTVSS
polyreactivity (PSR sort gate): high polyreactivity

QVQLVESGGGLVQAGGRLRLSCAASGSTLIRNVMGWYRQAPGKERELVAAINTRGTTTYYADSVKGRFTISRDKAKNTVYLQMNSLKPEDTAVSYCAARTPHYSYGYWGQGTHVTVSS
polyreactivity (PSR sort gate): high polyreactivity

QVQLVESGGGLVQAGGSLRLSCAASGSIIGRYTMGWYRQAPGKERELVAAINRSGGSTSYADSVKGRFTISRDNAKNTVYLQMNSLKPEDTAVYYCNRARSVPQFYGTYGFGYDYWGQGTQVTVSS
polyreactivity (PSR sort gate): low polyreactivity

QVQLVESGGGLVQAGGSLRLSCAASGSIFRWNAMGWYRQAPGKERELVAAIDSGGSTYADSVKGRFTISRDNAKNTVYLQMNSLKPEDTAVYYCAAAIPDEWPYDYWGQGTQVTVSS
polyreactivity (PSR sort gate): low polyreactivity

QVQLVESGGGLVQAGGSLRLSCAASGRTFVGYVMGWYRQAPGKERELVASITYTGTSTYYADSVKGRFTISRDNAKNTVYLQMNSLKPEDTAVYYCAAQYYLYRRGYIWKYDYWGQGTQVTVSS
polyreactivity (PSR sort gate): high polyreactivity

Source: the nanobody polyreactivity screen of Harvey et al. (2022)
